Values quoted from earlier work, collected in publication PMC4723247, “Novel α-L-Fucosidases from a Soil Metagenome for Production of Fucosylated Human Milk Oligosaccharides” (PLoS ONE, 2016).
Where two headings read alike, the source gives them in different places.

Set-up: method as in earlier work
Conditions: S2 Table, wrapped lists given only as far as the first printed line, ref http://www.cazy.org/GH29_characterized.html and S2 Table refs 1-18

Molecule	Reported substrates hydrolyzed	Reported substrates not hydrolyzed	Reported substrates hydrolyzed (listed as FucA1)
FucA1;FucA: α-L-fucosidase FucA1 from Rattus norvegicus (Uniprot P17164) (protein, UniProt P17164 29-462, looked up) Tissue alpha-L-fucosidase: APHHYTPDWPSLDSRPLPRWFDEAKFGLFVHWGVYSVPAWGSEWFWWHWQGEQSSAYVRFMKENYPPGFSYADFAPQFTARFFHPEEWADLFQAAGAKYVVLTAKHHEGFTNWPSAVSWNWNSKDVGPHRDLVGELGAAVRKRNIRYGLYHSLFEWFHPLYLLDKKNGLKTQHFVSTKTMPELYDLVNRYKPDLIWSDGEWECPDSYWNSTEFLAWLYNESPVKDQVVVNDRWGQNCSCRHGGYYNCEDKYRPHSLPDHKWEMCTSVDKASWGYRRDMSMSTIVDENEIIEELVQTISLGGNYLLNIGPNKDGVIVPIFQERLLAVGKWLQINGEAIYASKPWRVQSERNKTVVWYTTKDSAVYATFLHWPEDGVVNLQSPKMTSATKITMLGMEGELHWTQDPLEGVLITLPQLPPGTFPVESAWTLKLTKVN	Hydrolyzes pNP-Fuc, α1-2, α1-3, and α1-4 fucosyl linkages	Fucα1- 2GlcNAcβ-p NP	–
AlfA: α-L-fucosidase from Dictyostelium discoideum (Uniprot P10901) (protein, UniProt P10901 19-461, looked up) Alpha-L-fucosidase: QQYGPTWDQINSRPLPGWYDDVKFGIFIHFGIYSVPAFANGGYAEWYWWTLKNPSSDGGATQRYHEKEFGANFTYQDFVSRFDCRLFDANEWASIIEKSGAKYVVLTSKHHEGYTLWNSEQSWNWNSVETGPGIDIVGELTKSVKNMGLHMGLYHSLFEWFNPLYLADAETGKNPTTQVYVDEILMKQLKDIVTTYEPELIWADGDWMQLSNYWKSTEFLSWLYTNSSVKDTVIVNDRWGSECRDKNGGFYTGADHFNPYKLQSHKWENCATIGYSYGYDEYEQATDYQNATELIIDLVTTVACGGNFLLDVGPDAQGTIPNNMVDRLLEIGNWLSINSESIYGSSPWRVQNMTFNIWYTTNTTNGNVYAFVFELPDDGVLILSDPIGNNKTEATLLGLKGEKGVEVSLPIESTKPGITLNIPMVAPQDYPPYVYVFRLTDVE	6- O-alpha-L-fucopyranosyl- N-acetylglucosaminitol	Lacto-N-fucopentaitol II	–
FucA2;Mgc1314;dJ20N2.5: α-L-fucosidase FucA2 from Homo sapiens (Uniprot Q7Z6V2) (protein, UniProt Q9BTY2 29-467, looked up) Plasma alpha-L-fucosidase: HSATRFDPTWESLDARQLPAWFDQAKFGIFIHWGVFSVPSFGSEWFWWYWQKEKIPKYVEFMKDNYPPSFKYEDFGPLFTAKFFNANQWADIFQASGAKYIVLTSKHHEGFTLWGSEYSWNWNAIDEGPKRDIVKELEVAIRNRTDLRFGLYYSLFEWFHPLFLEDESSSFHKRQFPVSKTLPELYELVNNYQPEVLWSDGDGGAPDQYWNSTGFLAWLYNESPVRGTVVTNDRWGAGSICKHGGFYTCSDRYNPGHLLPHKWENCMTIDKLSWGYRREAGISDYLTIEELVKQLVETVSCGGNLLMNIGPTLDGTISVVFEERLRQMGSWLKVNGEAIYETHTWRSQNDTVTPDVWYTSKPKEKLVYAIFLKWPTSGQLFLGHPKAILGATEVKLLGHGQPLNWISLEQNGIMVELPQLTIHQMPCKWGWALALTNVI	Hydrolyzes pNP-Fuc, prefers α1-2 but capable of cleaving	–	–
AtFUC1;At2g28100: α-1,3/4-L-fucosidase 1 from Arabidopsis thaliana (Uniprot Q8GW72) (protein, UniProt Q8GW72 24-506, looked up) Alpha-L-fucosidase 1: SSLLKPHPCPILPLPSSQQLQWQLGSMAMFLHFGPNTFTDSEWGTGKANPSIFNPTHLNASQWVQIAKDSGFSRVILTAKHHDGFCLWPSEYTDYSVKSSQWRNGAGDVVAELASAAKEAGIGLGLYLSPWDRHEQCYGKTLEYNEFYLSQMTELLTKYGEIKEVWLDGAKGDGEKDMEYFFDTWFSLIHQLQPKAVIFSDAGPDVRWIGDEAGLAGSTCWSLFNRTNAKIGDTEPSYSQEGDGYGQDWVPAECDVSIRPGWFWHASESPKPAVQLLDIYYNSVGRNCLFLLNVPPNSSGLISEQDIKVLEEFSEMKNSIFSNNLARKAFVNSSSIRGDQSSQFGPKNVLEEGLDKYWAPEENQNEWVLYLEFKDLVSFNVLEIREPIHMGQRIASFHLETRKTGSGEWERVVSGTTVGNKRLLRFLNVVESRSLKLVVDKARTDPLISYLGLYMDKFSGSSRNTTKITITRTLKEEQQLHDL	2-aminobenzamide labeled LNFP II, 3FL, fucose linked α1-4	2-aminobenzamide labeled 2’-FL, pNP-Fuc	–
FUCA1: α-L-fucosidase from Canis lupus familiaris (Uniprot P48300) (protein, UniProt P48300 27-465, looked up) Tissue alpha-L-fucosidase: LVRAAAPPRRYTPDWQSLDSRPLPDWFDKAKFGVFVHWGEFAVPAWGSEWFWWHWKGEGLPQYEQFMSENYPPGFSYADFGPQFTARFFHPDTWADLFQAAGARYVVLTTKHHEGFTNWPSSVSWNWNSNDVGPHRDLVGELGRALRKRNIRYGLYHSLLEWFHPLYLLDKKNNFKTQFFVRAKTMPELYDLVNRYEPDLIWSDGEWKCPDTYWNSTEFLSWLYNDSPVKDHVVVNDRWGQNCSCHHGGYYNCQDKYKPESLPDLKWEMCTSIDKVSWGYRRNMVMSDVASECEIISELVQTVSLGGNYLLNIGPTKDGLIVPIFQERLLSIGKWLSINGEAIYASKPWRVQLEKNTTSVWYTSRGMTVYAIFLRWPENGVLSLKSPVTTSTTQITMLGIQKDLKWSTEPEGLLIYLPQLSLFTLPVEFGWTIKLTGVE	4- methylumbelliferyl- α- L-fucopyrano side	4- methylumbellife ryl β-fucopyranos i de	4- methylumbellife ryl α- L-fucopyranoside, pNP-F uc, 2’ -FL
